Tests used:
[1] = molecular target: HIV-1 JR-FL envelope (Env) on pseudovirus (HIV-1 JR-FL)
[2] = molecular target: HIV-1 JR-FL envelope (Env) on pseudovirus (HIV-1 JR-FL); remark: listed apart in the source
[3] = molecular target: gp120 (ELISA antigen of FIG. 3, strain not stated) (HIV-1, strain not stated); test: ELISA on coated gp120, absorbance at 405 nm
[4] = molecular target: HIV-1 SF162 envelope N301A on pseudovirus (HIV-1 SF162) (UniProt P19550); test: cell-based or functional assay
[5] = molecular target: HIV-1 JRCSF envelope N301A on pseudovirus (HIV-1 JR-CSF) (UniProt P20871); test: cell-based or functional assay
[6] = molecular target: HIV-1 JRFL envelope N332A on pseudovirus (HIV-1 JR-FL); test: cell-based or functional assay
[7] = molecular target: HIV-1 ADA envelope N332A on pseudovirus (HIV-1 ADA); test: cell-based or functional assay
[8] = molecular target: HIV-1 JRCSF envelope N332A on pseudovirus (HIV-1 JR-CSF) (UniProt P20871); test: cell-based or functional assay
[9] = molecular target: HIV-1 ADA envelope N301A on pseudovirus (HIV-1 ADA); test: cell-based or functional assay
[10] = molecular target: HIV-1 BaL envelope N301A on pseudovirus (HIV-1 BaL); test: cell-based or functional assay
[11] = molecular target: HIV-1 SF162 envelope N332A on pseudovirus (HIV-1 SF162) (UniProt P19550); test: cell-based or functional assay
[12] = molecular target: HIV-1 JRFL envelope N301A on pseudovirus (HIV-1 JR-FL); test: cell-based or functional assay
[13] = molecular target: HIV-1 BaL envelope N332A on pseudovirus (HIV-1 BaL); test: cell-based or functional assay
[14] = molecular target: HIV-1 92RW020 envelope N332A on pseudovirus (HIV-1 92RW020); test: cell-based or functional assay
[15] = molecular target: HIV-1JR-FL Env trimers on the surface of transfected 293T cells (Human immunodeficiency virus 1, strain JR-FL); test: JR-FL cell surface binding, flow cytometry on transfected 293T cells
[16] = molecular target: HIV-1YU2 Env on the surface of transfected 293T cells (Human immunodeficiency virus 1, strain YU2); test: flow cytometry on HIV-1YU2 Env-transfected 293T cells, MFI
[17] = molecular target: engineered outer domain mini-V3 (eODmV3), glycosylated gp120 outer domain construct (HIV-1 (base strain HxB2; mini-V3 based on JR-FL)); test: ELISA of IgG PGT 128 (FIG. 13)
JR-FL core + mini-V3 = test: ELISA on coated antigen, OD 405

| Substance | IC50 (JR-FL neutralization) [1] | IC50 (read off the curve; HIV-1JR-FL pseudovirus) [2] | EC50 (read off the curve) [3] | fold change in IC50 of variant envelope compared to WT envelope [4] | fold change in IC50 of variant envelope compared to WT envelope [5] | fold change in IC50 of variant envelope compared to WT envelope [6] | fold change in IC50 of variant envelope compared to WT envelope [7] | fold change in IC50 of variant envelope compared to WT envelope [8] | fold change in IC50 of variant envelope compared to WT envelope [9] | fold change in IC50 of variant envelope compared to WT envelope [10] | fold change in IC50 of variant envelope compared to WT envelope [11] | fold change in IC50 of variant envelope compared to WT envelope [12] | fold change in IC50 of variant envelope compared to WT envelope [13] | fold change in IC50 of variant envelope compared to WT envelope [14] | EC50 [15] | EC50 (read off the curve) [16] | apparent affinity [17] | EC50 (read off the curve) (JR-FL core + mini-V3) |
| --- | --- | --- | --- | --- | --- | --- | --- | --- | --- | --- | --- | --- | --- | --- | --- | --- | --- | --- |
| PGT 127 IgG (antibody) | 0.18 nM | 0.02 µg/mL | 0.08 µg/mL | > 200 fold | > 250 fold | > 200 fold | > 200 fold | > 200 fold | > 200 fold | > 200 fold | > 200 fold | > 200 fold | > 200 fold | 6.3 fold | 3.1 nM | – | – | – |
| PGT 128 IgG (antibody) | 0.09 nM | 0.01 µg/mL | 0.04 µg/mL | > 200 fold | 10.7 fold | > 200 fold | > 200 fold | 1.4 fold | > 200 fold | > 200 fold | > 200 fold | > 200 fold | > 200 fold | 1.6 fold | 2.8 nM | 8 nM | 46 nM | 2 nM |
